# In PMC7276988, “Cryo-EM Structure of the Fork Protection Complex Bound to CMG at a Replication Fork” (Molecular Cell, 2020):
# B1: Psf2 (natural protein, S. cerevisiae)
# chain: MSLPAHLQQTFSPEEIQFIVENEPIKIFPRITTRQKIRGDDRGTGNHTRWQLITTDDKALNNMVAMRSTEVVLWIALLLKQQSKCSIVAPQWLTTKELDRKIQYEKTHPDRFSELPWNWLVLARILFNKAKDDFHDPIHELRGKIQDLREIRQIKVLKGLKYLNESHLQLDNLSLLEINELRPFITEIMDKLREIHTASLTAGTENDEEEFNI
# notes: also called GINS subunit Psf2; source: S. cerevisiae, overexpressed, purified as part of CMG
# B2: Mrc1 (natural protein, S. cerevisiae, UniProt P25588 1-1096, looked up)
# chain: MDDALHALSSLTAKKRTTTYKKVAVPILDENDNTNGNGPNDIDNPPELTGNGFLFANATLNRVKNRLEGKKAPEQNHNNGKDRSENSLPTQLISNLYDGGEELEKSEVKDNSYSEKNVSSSFTQTQRIPVSIQQDKVFNVPIHSVNDGKPTQLIKEDGLVNETSQALKTPLTTGRPGATQRIDSSGATSQTQPIKSIEPQSQIITTSSNHSNALSPKIPIIPTELIGTSPLFQSIQNRGPDTQMDVPPQTAHDEDKTQAIGIPQATHQEQKTQIDTVAQTLQDEVPHTLKIREIQSELASEDSKREKARNVEYKKPQKPIPTKKFFSKESFLADFDDSSSNEDDDIKLENAHPKPVQNDDELHENKSVELNLTDETRINEKRVPLLSSYANNLKREIDSSKCITLDLDSDSDEYGDDDMDSIKLSKDESVLPISQLSKATILNLKARLSKQNQKLSQRPNKSKDPKVDHNVLLNTLRKASRKQILDHQKEVIETKGLKLEDMAKEKEIVENLLEQEILRNKRIRQKEKRREKLEENDFQLNAHDSGSDSGSESSGFALSGNEIADYESSGSENDNRRESDSEKEDDEIILKQKKSHHVKHIINESDSDTEVEAKPKEKADESLPKRIAINLGHYGDNIGEDTDKFQETNVLDTQNIEEVMAERNTIENEVKDDVYVNEEADEAIRRQLIDKEKLQLKQKEKEHEAKIKELKKRGVTNFFEMEAEESEDEWHGIGGADGEGSDDYDSDLEKMIDDYSKNNFNPHEIREMLAAENKEMDIKMINKILYDIKNGGFRNKRAKNSLELELSDDDEDDVLQQYRLKRRELMRKRRLEIGDDAKLVKNPKSSAFFESMVEDIIEYKNPFGAEEEYNLDITSTATDLDTQDNSINVGDNTGNNEQKPVDQKNKKVIISEDFVQKSLSFLKSNNYEDFETDKELSRIQHGNDEAIEDLYTLKQNSSIKSFTNSQTDSTTSKTVNTIIDLEKRPEDEDEVENGDTSLVGVFKHPSIIKSFASRTDINDKFKEGNKTVKILKSYKTVGSSKASITYMGKTRKLIAPKRKTEGSHRYHHDHHNKKMKMKTKTKSNKLFESGQDSFDN
# notes: Mrc1, S. cerevisiae; printed as a 125 kDa protein; The FLAG purification is told for the separately purified protein; source: S. cerevisiae, overexpressed at 20°C, purified (anti-FLAG M2, Superose 6)
# B3: Csm3^(K47A, R48A, R49A, Q51A, K53A)/Tof1^(K400A, R401A, K404A) (complex, S. cerevisiae)
# chain 1: MDQDFDSLLLGFNDSDSVQKDPTVPNGLDGSVVDPTIADPTAITARAAAPAVALTAEKLLSDKGLPYVLKNAHKRIRISSKKNSYDNLSNIIQFYQLWAHELFPKAKFKDFMKICQTVGKTDPVLREYRVSLFRDEMGMSFDVGTRETGQDLERQSPMVEEHVTSAEERPIVADSFAQDKRNVNNVDYDNDEDDDIYHLSYRNRRGRVLDERGNNETVLNNVVPPKEDLDALLKTFRVQGPVGLEENEKKLLLGWLDAHRKMEKGSMTEEDVQLIQSLEEWEMNDIEGQHTHYDLLPGGDEFGVDQDELDAMKEMGF
# chain 2: MSADLQQGTTNAADFSLTVLRARIALLATAIGGPDYTSQIDPPPYKLGDDCLACLKDLKRWFKLVDDQQKRWDVAMAVAEYRILTDDLLPILIDWENKCSLAAKLAKNNPDHEEFRNKAYYDKIALNCLQLLVLMTWPLIVTEQSSSNQITLYGELKKHQLVYKKTILSMESGKVLRAAIRLALDVIKIDRLSRTPRDNMVLKLVLNFFRNVIAIEPGEFTINTKKSMPKKGITSIDTLPPNVSMDDISLNTVISSFHKNKVFGFLLTLTSSLSKEFDQDFINIPLLEIMFYFTKDVNQELLFPRQFETGTHSKVVNKNESSSANNIVTSAGFELSKLLQKEHQMRKNVIKHTSARHSRFGGLLSIQTPDKTRLTVSGSQALVDEKIALQKLDDSKKWNAAIIAKHQSVAAEGLPNSLLNSQTGKAIFFTESNGKHFKEFINNFIDSGFNILLHSVTNYFTTEQDRMVTLEQVEYLLFFAWFVKYQLLRSKIDNSADIKQVSEALKEVTFILVSSLLRSAYDLKNWTVTHAGMIAFNELLNLVSRTKAAQEEDSTDIEFIVSRLFSDERIQLLSNLPKIGSKYSLQFMKSCIELTHSVLKVLEQYSDDKTLVIEGKSRRQKKFNISEGDITKLIEEENVDRDEALDILTSSLRSIEVNFQKVQANYMTEPVIETYINFLERFRELEDDSIKKVFSFFHRVFVQAKEQALLFRFDLIILLREMLSPDGLDRMSRSRKYVSQFSDYFLARLKKRLKKSPAWFVGLLFPPLHNSEVGFYQRYGEYNVLNNESMYAAPASQFKPIPDEEALPPSILLDMKYGVLVSTLLDDGKTELLDQLLKHITHTLDIFKSWLTVNVNAGKETVNPPNEYFTLTGVLNNDPIFKDKDYRALLLLIGYSIPRKINEPCFLPGTVEVSDLTVSCELVKKYLSTPFETPNGLPSSSYLLRVRSEKDSFSHNEQDGWEGDDDYDYNDPYIVPDDQILSKSDAAYFKDLDNNASDKLKGTKFSKGIARSKKKDKRKRRKGEAKTNLPMFGDQDDERPQTVRERHGVFSKEFISDSEDDEDLMNPIFFENETYMRWLLDKNNGQLTEDRYIQFAKFAAERMNNGGVVTGDYTSLFGGSIPSIESIRATESSSFAPDKSLISLASHVASEMSIFDVNNNNNNQLSDDDVNSESRNSLGSSQPSNSQNMFQSEVYSRKESTKRSLEASAADESDEDEEAIRLFGKKSRVVLSQGDSDD
# notes: also called Csm3-5A/Tof1-3A; source: S. cerevisiae, overexpressed, purified as a heterodimer
# Legend:
# [1] = target: replisome assembled in vitro on origin DNA (CMG-containing) (S. cerevisiae) (UniProt P29469)
# Chain of replisome assembled in vitro on origin DNA (CMG-containing) (S. cerevisiae) (P29469 whole entry, looked up): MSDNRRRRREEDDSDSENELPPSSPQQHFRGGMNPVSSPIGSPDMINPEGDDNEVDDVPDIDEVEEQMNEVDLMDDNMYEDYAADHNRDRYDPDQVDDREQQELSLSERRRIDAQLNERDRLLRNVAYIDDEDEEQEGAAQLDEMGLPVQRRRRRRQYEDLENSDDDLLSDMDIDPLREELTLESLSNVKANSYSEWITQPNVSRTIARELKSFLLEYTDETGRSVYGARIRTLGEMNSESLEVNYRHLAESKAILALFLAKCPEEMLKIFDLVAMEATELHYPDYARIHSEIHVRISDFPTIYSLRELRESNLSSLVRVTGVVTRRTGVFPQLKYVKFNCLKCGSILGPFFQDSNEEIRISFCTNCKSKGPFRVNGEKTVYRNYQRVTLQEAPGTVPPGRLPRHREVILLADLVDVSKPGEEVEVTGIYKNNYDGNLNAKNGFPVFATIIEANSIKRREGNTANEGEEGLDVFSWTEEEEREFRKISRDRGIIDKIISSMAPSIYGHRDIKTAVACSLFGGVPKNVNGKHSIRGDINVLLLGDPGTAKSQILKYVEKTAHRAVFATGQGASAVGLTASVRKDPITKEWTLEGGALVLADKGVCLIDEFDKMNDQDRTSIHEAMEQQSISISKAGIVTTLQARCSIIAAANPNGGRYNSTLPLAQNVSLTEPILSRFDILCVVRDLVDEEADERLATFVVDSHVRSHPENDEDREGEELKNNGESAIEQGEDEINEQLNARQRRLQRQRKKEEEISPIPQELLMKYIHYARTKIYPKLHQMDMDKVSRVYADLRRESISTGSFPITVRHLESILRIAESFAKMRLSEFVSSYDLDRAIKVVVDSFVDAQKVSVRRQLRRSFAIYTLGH
# Cdc45 = target: T1, Cdc45 (S. cerevisiae, UniProt Q08032 1-650); assay: cryo-EM structure; reconstituted from purified CMG, fork DNA, Csm3/Tof1, Ctf4, Mrc1 with AMP-PNP; glycerol gradient fixation (glutaraldehyde and BS3); settings: both partners purified
# T1 construct: Cdc45, S. cerevisiae, subunit of CMG; source: S. cerevisiae, overexpressed, purified as part of CMG; in XL-MS part of the co-expressed, co-purified complex (yJY74)
# T1 sequence: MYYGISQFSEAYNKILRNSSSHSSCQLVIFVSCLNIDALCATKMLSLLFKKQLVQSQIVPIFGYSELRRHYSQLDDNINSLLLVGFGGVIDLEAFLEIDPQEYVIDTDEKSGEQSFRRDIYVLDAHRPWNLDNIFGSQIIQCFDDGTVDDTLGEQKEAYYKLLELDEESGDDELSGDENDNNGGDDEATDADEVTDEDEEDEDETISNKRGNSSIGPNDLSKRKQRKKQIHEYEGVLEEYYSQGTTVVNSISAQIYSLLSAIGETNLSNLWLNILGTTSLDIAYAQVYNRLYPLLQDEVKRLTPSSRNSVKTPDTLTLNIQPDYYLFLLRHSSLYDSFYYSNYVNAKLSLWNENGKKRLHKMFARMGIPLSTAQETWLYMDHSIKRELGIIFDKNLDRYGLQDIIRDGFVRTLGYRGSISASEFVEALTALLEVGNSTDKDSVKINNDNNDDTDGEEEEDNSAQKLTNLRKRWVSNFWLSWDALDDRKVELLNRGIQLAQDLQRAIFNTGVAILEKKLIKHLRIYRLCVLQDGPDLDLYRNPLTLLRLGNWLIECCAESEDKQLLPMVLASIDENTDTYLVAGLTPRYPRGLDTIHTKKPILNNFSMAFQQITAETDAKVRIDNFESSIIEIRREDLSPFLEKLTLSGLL
# [2] = target: T2, Cdc45-MCM-GINS (CMG) helicase (S. cerevisiae, UniProt P29469 1-868; P24279 1-971; P30665 1-933; P29496 1-775; P53091 1-1017; P38132 …); assay: co-sedimentation; 10-30% glycerol gradient without cross-linker; 0.5 μM CMG with 1.5 molar excess of fork DNA, Csm3/Tof1 (or mutant), Ctf4 and Mrc1; 500 μM AMP-PNP, 3 mM Mg(OAc)2, 150 mM NaOAc, pH 7.5; 200,000g, 4°C, 2 h; silver-stained SDS-PAGE of fractions; settings: both partners purified
# T2 construct: Mcm2, S. cerevisiae, subunit of MCM in CMG; Mcm3, S. cerevisiae, subunit of MCM in CMG; Mcm4, S. cerevisiae, subunit of MCM in CMG; Mcm5, S. cerevisiae, subunit of MCM in CMG; Mcm6, S. cerevisiae, subunit of MCM in CMG; Mcm7, S. cerevisiae, subunit of MCM in CMG; Cdc45, S. cerevisiae, subunit of CMG; Psf1, S. cerevisiae, subunit of GINS in CMG; Psf2, S. cerevisiae, subunit of GINS in CMG; Psf3, …
molecule,measurement,setting,value
Csm3/Tof1 heterodimer (from UniProt Q04659 1-317; P53840 1-1238) (complex),concentration of Csm3/Tof1 that saturates origin-dependent replication (Figure S10H),[1],10 nM
B1,binding result,Cdc45,binds
B2,stoichiometry N,[2],~1 Mrc1 per complex
B3,binding result,[2],binds
